Assay results as given in patent US20200377590A1 (Hoffmann-La Roche, published 2020).

T1: CD81 (UniProt P60033 1-236, limits assumed)
T1 construct: whole, on cells; also called CD81 receptor
T1 sequence (looked up): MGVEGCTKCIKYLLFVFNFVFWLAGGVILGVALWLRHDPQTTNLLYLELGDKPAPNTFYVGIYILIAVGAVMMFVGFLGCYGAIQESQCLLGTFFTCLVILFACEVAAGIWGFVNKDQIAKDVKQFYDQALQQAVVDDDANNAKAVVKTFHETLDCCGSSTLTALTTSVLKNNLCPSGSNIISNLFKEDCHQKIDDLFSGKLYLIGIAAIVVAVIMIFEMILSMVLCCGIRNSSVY


Target: T1, CD81
Test: cell ELISA;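 further: antibody binding to HuH7 cells expressing CD81 versus a CD81-negative HuH7 control line, bound antibody detected by secondary reagent, absorbance at 450 nm with 620 nm reference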
Protocol: For the binding cell ELISA assay, HuH7-Rluc-H3 (positive cell line expressing CD81) and HuH7-Rluc-L1 (negative control cell line) were propagated in F-12 DMEM medium with 10% FCS at 37° C. and 5% CO₂. On day 1, the cells were trypsinized at approximately 90% confluence and resuspended at 4×10⁵ cells/mL. […] On day 2, the antibody samples to be tested were prepared in a separate polypropylene round bottom plate with a twofold desired concentration with a final volume of 120 μl. All of the assay samples were diluted in cell culture medium. […] After fixation, each well was washed 3 times with 200 μL PBS/0.05% Tween. The secondary incubation step for detection of bound anti-CD81 antibodies was performed for 2 h at room temperature on a reciprocal shaker. […] Each well was washed three times with 200 μL PBS/0.05% Tween to remove unbound antibodies. […] The absorbance was read using the ELISA Tecan reader at 450 nm with 620 nm reference wavelength.

Row | Binder | ELISA data
1 | CD81K04 HC JA_GG-14-hVH_1_69 / LC JA_GG-09-hVK_4_1 (antibody, V domains shown, human constant region) VH: QVQLVQSGAEVKKPGSSVKVSCKASGYTFSSSWMNWVRQAPGQGLEWMGRIYSGDGDAIYNGKFKGKATITADESTSTAYMELSSLRSEDTAVYYCAREGKTGDLLLRSWGQGTLVTVSS VL: DIVMTQSPDSLAVSLGERATINCKSSKSVSTSIYSYMHWYQQKPGQPPKLLIKYASTRESGVPDRFSGSGSGTDFTLTISSLQAEDVAVYYCEHSREFPFTFGQGTKLEIK | 0.913
2 | CD81K04 HC JA_GG-14-hVH_1_69-GA / LC JA_GG-10-hVK_4_1 (antibody, V domains shown, human constant region) VH: QVQLVQSGAEVKKPGSSVKVSCKASGYTFSSSWMNWVRQAPGQGLEWMGRIYSGDGDAIYNGKFKGKATITADESTSTAYMELSSLRSEDTAVYYCAREGKTGDLLLRSWGQGTLVTVSS VL: DIVMTQSPDSLAVSLGERATINCRASKSVSTSIYSYMHWYQQKPGQPPKLLIKYASYLESGVPDRFSGSGSGTDFTLTISSLQAEDVAVYYCEHSREFPFTFGQGTKLEIK | 0.733
3 | CD81K04 HC K04_JA-13-hVH_1_3 / LC GG-02-hVK_4_1 (antibody, V domains shown, human constant region) VH: QVQLVQSGAEVKKPGASVKVSCKASGYTFSSSWMNWVRQAPGQRLEWMGRIYSGDGDAIYNGKFKGRVTITRDTSASTAYMELSSLRSEDTAVYYCAREGKTGDLLLRSWGQGTLVTVSS VL: DIVMTQSPDSLAVSLGERATINCKSSKSVSTSIYSYMHWYQQKPGQPPKLLIYYASYRESGVPDRFSGSGSGTDFTLTISSLQAEDVAVYYCQHSREFPFTFGQGTKLEIK | 0.475
4 | CD81K04 HC JA_GG-16-hVH_1_3 / LC JA_GG-10-hVK_4_1 (antibody, V domains shown, human constant region) VH: QVQLVQSGAEVKKPGASVKVSCKASGYTFSSSWMNWVRQAPGQGLEWMGRIYSGDGDAIYNGKFKGRVTITADTSASTAYMELSSLRSEDTAVYYCAREGKTGDLLLRSWGQGTLVTVSS VL: DIVMTQSPDSLAVSLGERATINCRASKSVSTSIYSYMHWYQQKPGQPPKLLIKYASYLESGVPDRFSGSGSGTDFTLTISSLQAEDVAVYYCEHSREFPFTFGQGTKLEIK | 0.88
5 | CD81K04 HC JA_GG-15-hVH_1_3 / LC JA_GG-08-hVK_4_1 (antibody, V domains shown, human constant region) VH: QVQLVQSGAEVKKPGASVKVSCKASGYTFSSSWMNWVRQAPGQRLEWMGRIYSGDGDAIYNGKFKGRVTITADTSASTAYMELSSLRSEDTAVYYCAREGKTGDLLLRSWGQGTLVTVSS VL: DIVMTQSPDSLAVSLGERATINCKSSKSVSTSIYSYMHWYQQKPGQPPKLLIKYASYLESGVPDRFSGSGSGTDFTLTISSLQAEDVAVYYCEHSREFPFTFGQGTKLEIK | 0.993
6 | CD81K04 HC JA_GG-16-hVH_1_3 / LC JA_GG-09-hVK_4_1 (antibody, V domains shown, human constant region) VH: QVQLVQSGAEVKKPGASVKVSCKASGYTFSSSWMNWVRQAPGQGLEWMGRIYSGDGDAIYNGKFKGRVTITADTSASTAYMELSSLRSEDTAVYYCAREGKTGDLLLRSWGQGTLVTVSS VL: DIVMTQSPDSLAVSLGERATINCKSSKSVSTSIYSYMHWYQQKPGQPPKLLIKYASTRESGVPDRFSGSGSGTDFTLTISSLQAEDVAVYYCEHSREFPFTFGQGTKLEIK | 1.08
7 | CD81K04 HC JA_GG-14-hVH_1_69 / LC JA_GG-10-hVK_4_1 (antibody, V domains shown, human constant region) VH: QVQLVQSGAEVKKPGSSVKVSCKASGYTFSSSWMNWVRQAPGQGLEWMGRIYSGDGDAIYNGKFKGKATITADESTSTAYMELSSLRSEDTAVYYCAREGKTGDLLLRSWGQGTLVTVSS VL: DIVMTQSPDSLAVSLGERATINCRASKSVSTSIYSYMHWYQQKPGQPPKLLIKYASYLESGVPDRFSGSGSGTDFTLTISSLQAEDVAVYYCEHSREFPFTFGQGTKLEIK | 0.77
8 | CD81K04 HC JA_GG-15-hVH_1_3 / LC GG-02-hVK_4_1 (antibody, V domains shown, human constant region) VH: QVQLVQSGAEVKKPGASVKVSCKASGYTFSSSWMNWVRQAPGQRLEWMGRIYSGDGDAIYNGKFKGRVTITADTSASTAYMELSSLRSEDTAVYYCAREGKTGDLLLRSWGQGTLVTVSS VL: DIVMTQSPDSLAVSLGERATINCKSSKSVSTSIYSYMHWYQQKPGQPPKLLIYYASYRESGVPDRFSGSGSGTDFTLTISSLQAEDVAVYYCQHSREFPFTFGQGTKLEIK | 0.602
9 | CD81K04 HC JA_GG-14-hVH_1_69-GA / LC GG-03-hVK_4_1 (antibody, V domains shown, human constant region) VH: QVQLVQSGAEVKKPGSSVKVSCKASGYTFSSSWMNWVRQAPGQGLEWMGRIYSGDGDAIYNGKFKGKATITADESTSTAYMELSSLRSEDTAVYYCAREGKTGDLLLRSWGQGTLVTVSS VL: DIVMTQSPDSLAVSLGERATINCKSSKSVSTSIYSYLAWYQQKPGQPPKLLIYYASYRESGVPDRFSGSGSGTDFTLTISSLQAEDVAVYYCQHSREFPFTFGQGTKLEIK | 0.243
10 | CD81K04 HC K04_JA-13-hVH_1_3 / LC GG-04-hVK_4_1 (antibody, V domains shown, human constant region) VH: QVQLVQSGAEVKKPGASVKVSCKASGYTFSSSWMNWVRQAPGQRLEWMGRIYSGDGDAIYNGKFKGRVTITRDTSASTAYMELSSLRSEDTAVYYCAREGKTGDLLLRSWGQGTLVTVSS VL: DIVMTQSPDSLAVSLGERATINCKSSKSVSTSIYSYLAWYQQKPGQPPKLLIYYASTRESGVPDRFSGSGSGTDFTLTISSLQAEDVAVYYCQHSREFPYTFGQGTKLEIK | 0.152
11 | CD81K04 HC JA_GG-14-hVH_1_69-GA / LC JA_GG-08-hVK_4_1 (antibody, V domains shown, human constant region) VH: QVQLVQSGAEVKKPGSSVKVSCKASGYTFSSSWMNWVRQAPGQGLEWMGRIYSGDGDAIYNGKFKGKATITADESTSTAYMELSSLRSEDTAVYYCAREGKTGDLLLRSWGQGTLVTVSS VL: DIVMTQSPDSLAVSLGERATINCKSSKSVSTSIYSYMHWYQQKPGQPPKLLIKYASYLESGVPDRFSGSGSGTDFTLTISSLQAEDVAVYYCEHSREFPFTFGQGTKLEIK | 0.836
12 | CD81K04 HC JA_GG-16-hVH_1_3 / LC GG-04-hVK_4_1 (antibody, V domains shown, human constant region) VH: QVQLVQSGAEVKKPGASVKVSCKASGYTFSSSWMNWVRQAPGQGLEWMGRIYSGDGDAIYNGKFKGRVTITADTSASTAYMELSSLRSEDTAVYYCAREGKTGDLLLRSWGQGTLVTVSS VL: DIVMTQSPDSLAVSLGERATINCKSSKSVSTSIYSYLAWYQQKPGQPPKLLIYYASTRESGVPDRFSGSGSGTDFTLTISSLQAEDVAVYYCQHSREFPYTFGQGTKLEIK | 0.263
13 | CD81K04 HC JA_GG-15-hVH_1_3 / LC GG-03-hVK_4_1 (antibody, V domains shown, human constant region) VH: QVQLVQSGAEVKKPGASVKVSCKASGYTFSSSWMNWVRQAPGQRLEWMGRIYSGDGDAIYNGKFKGRVTITADTSASTAYMELSSLRSEDTAVYYCAREGKTGDLLLRSWGQGTLVTVSS VL: DIVMTQSPDSLAVSLGERATINCKSSKSVSTSIYSYLAWYQQKPGQPPKLLIYYASYRESGVPDRFSGSGSGTDFTLTISSLQAEDVAVYYCQHSREFPFTFGQGTKLEIK | 0.545
14 | CD81K04 HC JA_GG-16-hVH_1_3 / LC GG-02-hVK_4_1 (antibody, V domains shown, human constant region) VH: QVQLVQSGAEVKKPGASVKVSCKASGYTFSSSWMNWVRQAPGQGLEWMGRIYSGDGDAIYNGKFKGRVTITADTSASTAYMELSSLRSEDTAVYYCAREGKTGDLLLRSWGQGTLVTVSS VL: DIVMTQSPDSLAVSLGERATINCKSSKSVSTSIYSYMHWYQQKPGQPPKLLIYYASYRESGVPDRFSGSGSGTDFTLTISSLQAEDVAVYYCQHSREFPFTFGQGTKLEIK | 0.596
15 | CD81K04 HC K04_JA-13-hVH_1_3 / LC GG-03-hVK_4_1 (antibody, V domains shown, human constant region) VH: QVQLVQSGAEVKKPGASVKVSCKASGYTFSSSWMNWVRQAPGQRLEWMGRIYSGDGDAIYNGKFKGRVTITRDTSASTAYMELSSLRSEDTAVYYCAREGKTGDLLLRSWGQGTLVTVSS VL: DIVMTQSPDSLAVSLGERATINCKSSKSVSTSIYSYLAWYQQKPGQPPKLLIYYASYRESGVPDRFSGSGSGTDFTLTISSLQAEDVAVYYCQHSREFPFTFGQGTKLEIK | 0.423
16 | CD81K04 HC JA_GG-15-hVH_1_3 / LC GG-04-hVK_4_1 (antibody, V domains shown, human constant region) VH: QVQLVQSGAEVKKPGASVKVSCKASGYTFSSSWMNWVRQAPGQRLEWMGRIYSGDGDAIYNGKFKGRVTITADTSASTAYMELSSLRSEDTAVYYCAREGKTGDLLLRSWGQGTLVTVSS VL: DIVMTQSPDSLAVSLGERATINCKSSKSVSTSIYSYLAWYQQKPGQPPKLLIYYASTRESGVPDRFSGSGSGTDFTLTISSLQAEDVAVYYCQHSREFPYTFGQGTKLEIK | 0.3
17 | CD81K04 HC JA_GG-14-hVH_1_69-GA / LC GG-02-hVK_4_1 (antibody, V domains shown, human constant region) VH: QVQLVQSGAEVKKPGSSVKVSCKASGYTFSSSWMNWVRQAPGQGLEWMGRIYSGDGDAIYNGKFKGKATITADESTSTAYMELSSLRSEDTAVYYCAREGKTGDLLLRSWGQGTLVTVSS VL: DIVMTQSPDSLAVSLGERATINCKSSKSVSTSIYSYMHWYQQKPGQPPKLLIYYASYRESGVPDRFSGSGSGTDFTLTISSLQAEDVAVYYCQHSREFPFTFGQGTKLEIK | 0.211
18 | CD81K04 HC JA_GG-15-hVH_1_3 / LC JA_GG-09-hVK_4_1 (antibody, V domains shown, human constant region) VH: QVQLVQSGAEVKKPGASVKVSCKASGYTFSSSWMNWVRQAPGQRLEWMGRIYSGDGDAIYNGKFKGRVTITADTSASTAYMELSSLRSEDTAVYYCAREGKTGDLLLRSWGQGTLVTVSS VL: DIVMTQSPDSLAVSLGERATINCKSSKSVSTSIYSYMHWYQQKPGQPPKLLIKYASTRESGVPDRFSGSGSGTDFTLTISSLQAEDVAVYYCEHSREFPFTFGQGTKLEIK | 0.936
19 | CD81K04 HC JA_GG-16-hVH_1_3 / LC GG-03-hVK_4_1 (antibody, V domains shown, human constant region) VH: QVQLVQSGAEVKKPGASVKVSCKASGYTFSSSWMNWVRQAPGQGLEWMGRIYSGDGDAIYNGKFKGRVTITADTSASTAYMELSSLRSEDTAVYYCAREGKTGDLLLRSWGQGTLVTVSS VL: DIVMTQSPDSLAVSLGERATINCKSSKSVSTSIYSYLAWYQQKPGQPPKLLIYYASYRESGVPDRFSGSGSGTDFTLTISSLQAEDVAVYYCQHSREFPFTFGQGTKLEIK | 0.437
20 | CD81K04 HC JA_GG-14-hVH_1_69-GA / LC JA_GG-09-hVK_4_1 (antibody, V domains shown, human constant region) VH: QVQLVQSGAEVKKPGSSVKVSCKASGYTFSSSWMNWVRQAPGQGLEWMGRIYSGDGDAIYNGKFKGKATITADESTSTAYMELSSLRSEDTAVYYCAREGKTGDLLLRSWGQGTLVTVSS VL: DIVMTQSPDSLAVSLGERATINCKSSKSVSTSIYSYMHWYQQKPGQPPKLLIKYASTRESGVPDRFSGSGSGTDFTLTISSLQAEDVAVYYCEHSREFPFTFGQGTKLEIK | 0.888
21 | CD81K04 HC JA_GG-15-hVH_1_3 / LC JA_GG-10-hVK_4_1 (antibody, V domains shown, human constant region) VH: QVQLVQSGAEVKKPGASVKVSCKASGYTFSSSWMNWVRQAPGQRLEWMGRIYSGDGDAIYNGKFKGRVTITADTSASTAYMELSSLRSEDTAVYYCAREGKTGDLLLRSWGQGTLVTVSS VL: DIVMTQSPDSLAVSLGERATINCRASKSVSTSIYSYMHWYQQKPGQPPKLLIKYASYLESGVPDRFSGSGSGTDFTLTISSLQAEDVAVYYCEHSREFPFTFGQGTKLEIK | 0.915
